This is an account of results in PMC2132950.

For experiment [1], the target named is taxol-stabilized microtubules (bovine (brain)) (UniProt Q6B856). Put plainly: co-sedimentation.
For experiment [2], the target named is kinesin heavy chain deletion mutant H810 (stop codon after amino acid 810), myc-tagged (rat) (UniProt Q2PQA9). Briefly: co-IP.
Chain of UniProt Q2PQA9 (Q2PQA9 2-963, stated change not applied): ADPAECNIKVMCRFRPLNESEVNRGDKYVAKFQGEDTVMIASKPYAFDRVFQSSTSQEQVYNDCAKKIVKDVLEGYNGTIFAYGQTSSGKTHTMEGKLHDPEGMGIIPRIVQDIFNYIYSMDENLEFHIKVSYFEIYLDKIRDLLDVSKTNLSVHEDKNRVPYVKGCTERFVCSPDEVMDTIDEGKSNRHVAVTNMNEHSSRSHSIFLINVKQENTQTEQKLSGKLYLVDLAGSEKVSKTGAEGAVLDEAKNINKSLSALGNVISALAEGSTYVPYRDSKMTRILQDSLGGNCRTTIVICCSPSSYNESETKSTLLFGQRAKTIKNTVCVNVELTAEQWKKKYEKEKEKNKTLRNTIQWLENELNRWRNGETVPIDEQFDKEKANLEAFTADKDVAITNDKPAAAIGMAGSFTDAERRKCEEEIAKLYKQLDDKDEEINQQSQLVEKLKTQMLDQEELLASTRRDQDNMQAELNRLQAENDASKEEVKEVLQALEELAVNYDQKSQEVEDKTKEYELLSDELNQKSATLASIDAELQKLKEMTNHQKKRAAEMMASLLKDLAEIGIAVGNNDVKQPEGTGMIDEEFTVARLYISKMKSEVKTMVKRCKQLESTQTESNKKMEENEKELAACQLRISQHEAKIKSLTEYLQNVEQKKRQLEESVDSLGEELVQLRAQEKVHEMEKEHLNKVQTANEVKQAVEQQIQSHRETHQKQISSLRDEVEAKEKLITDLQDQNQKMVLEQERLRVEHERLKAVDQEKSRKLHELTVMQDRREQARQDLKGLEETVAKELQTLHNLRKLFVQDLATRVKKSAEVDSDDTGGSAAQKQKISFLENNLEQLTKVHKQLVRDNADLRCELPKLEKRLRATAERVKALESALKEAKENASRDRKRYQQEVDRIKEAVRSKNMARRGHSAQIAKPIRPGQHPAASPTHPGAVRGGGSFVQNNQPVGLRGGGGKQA

Chain of UniProt Q6B856 (Q6B856 whole entry, looked up): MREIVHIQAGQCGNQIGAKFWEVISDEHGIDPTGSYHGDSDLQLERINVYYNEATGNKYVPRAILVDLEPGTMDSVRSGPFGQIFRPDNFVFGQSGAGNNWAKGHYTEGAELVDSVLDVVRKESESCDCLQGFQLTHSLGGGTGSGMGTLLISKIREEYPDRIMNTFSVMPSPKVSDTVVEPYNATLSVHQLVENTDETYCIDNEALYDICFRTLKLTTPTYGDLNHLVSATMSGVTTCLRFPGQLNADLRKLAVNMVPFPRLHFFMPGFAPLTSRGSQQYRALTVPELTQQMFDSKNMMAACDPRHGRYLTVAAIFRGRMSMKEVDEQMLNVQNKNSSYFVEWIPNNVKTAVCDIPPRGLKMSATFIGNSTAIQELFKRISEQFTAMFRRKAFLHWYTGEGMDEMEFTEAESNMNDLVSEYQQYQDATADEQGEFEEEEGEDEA

In experiment [1], “HC coexpressed with the LC deletion mutant L176 (from UniProt Q2PQA9 1-963; P37285 1-176) (complex)” had a percent of HC bound to MTs of 50% and a percent of L176 bound to MTs of 20%. Regarding “HC deletion mutant H810 coexpressed with LC (from UniProt Q2PQA9 1-810; P37285 1-560) (complex)”, in experiment [1], the percent of the HC construct sedimented with MTs was found to be 90%.

“HC deletion mutant H891 coexpressed with LC (from UniProt Q2PQA9 1-891; P37285 1-560) (complex)” showed a percent of the HC construct sedimented with MTs in experiment [1] of 50 to 95%.

On to “NH2-terminal 420 amino acids of human conventional kinesin heavy chain (from UniProt P33176 1-420) (domain or fragment)”, for which, in experiment [1], the tubulin concentration at half-maximal binding came out at 0.15 mM. With “kinesin light chain splice form C (rat), HA-tagged (from UniProt P37285 1-560) (natural protein)”, in experiment [2], the percent of LC coprecipitated turned out to be 50%.
